Source: US20140363441A1 (priority 2013, published 2014)

Target: M2 protein of influenza A/Puerto Rico/8/34 (H1N1) on the surface of infected MDCK cells or transfected cells (influenza A virus H1N1 A/Puerto Rico/8/34) (UniProt P06821)
Assay: flow cytometry, PR8-infected MDCK cells

Sequence of UniProt P06821 (P06821 whole entry): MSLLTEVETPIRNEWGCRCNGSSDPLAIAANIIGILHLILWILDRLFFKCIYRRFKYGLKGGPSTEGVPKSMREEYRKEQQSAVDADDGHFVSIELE

Question: “chimeric mouse V-region/human IgG1 kappa 14C2 antibody” was tested. Which EC50 (read off the curve) did it give?
Answer: Its EC50 (read off the curve) is 0.3 µg/mL.
